Literature values as cited in patent US8013186B2, “Haloalkyl containing compounds as cysteine protease inhibitors” (Virobay, Inc., priority 2004, dated 2011).

Conditions: in clinical trials

OKT3: murine monoclonal antibody directed towards CD-3 domain of activated T-cells
patients administered OKT3 who produce antibodies versus the therapy: 20-40%
